According to PMC6736072 (Nucleic Acids Research, 2019):

Biological target: T1, His-MAD1 (recombinant, not phosphorylated by ULK1) (human, UniProt Q9Y6D9 1-718)
T1 sequence: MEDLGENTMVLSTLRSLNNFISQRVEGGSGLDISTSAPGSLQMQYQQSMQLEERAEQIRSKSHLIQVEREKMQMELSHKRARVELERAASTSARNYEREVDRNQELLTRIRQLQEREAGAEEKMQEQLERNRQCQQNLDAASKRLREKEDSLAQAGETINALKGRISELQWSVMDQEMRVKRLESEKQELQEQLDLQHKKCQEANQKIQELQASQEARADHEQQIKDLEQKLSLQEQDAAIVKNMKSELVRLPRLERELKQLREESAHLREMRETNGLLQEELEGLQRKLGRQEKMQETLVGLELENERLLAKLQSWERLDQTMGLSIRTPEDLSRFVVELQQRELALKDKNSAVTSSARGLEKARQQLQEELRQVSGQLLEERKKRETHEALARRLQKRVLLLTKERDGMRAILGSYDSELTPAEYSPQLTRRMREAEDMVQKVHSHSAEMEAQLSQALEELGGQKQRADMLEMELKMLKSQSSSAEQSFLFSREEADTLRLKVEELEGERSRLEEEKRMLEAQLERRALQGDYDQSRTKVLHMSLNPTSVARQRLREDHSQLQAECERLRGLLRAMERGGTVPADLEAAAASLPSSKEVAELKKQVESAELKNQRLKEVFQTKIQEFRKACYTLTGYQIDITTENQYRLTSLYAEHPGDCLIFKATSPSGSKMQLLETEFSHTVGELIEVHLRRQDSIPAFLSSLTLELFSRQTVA
Test: pull-down

B1: human FLAG-BUB1-(437-509), phosphorylated in vitro (domain or fragment)
chain: SFHTTPNTSLGMVQATPSKVQPSPTVHTKEALGFIMNMFQAPTLPDISDDKDEWQSLDQNEDAFEAQFQKNVR
B1: binds.
